# From the nanobody polyreactivity screen of Harvey et al. (2022)
# Assay: yeast display, Sf9 membrane polyspecificity reagent, FACS + sequencing; frameworks hold sequencing errors
# In short: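 Nanobodies came from a synthetic yeast display library in Saccharomyces cerevisiae BJ5465, induced with galactose for 36–48 hours and stained for 1 hour at 4 °C with 10% biotinylated, detergent-solubilized Sf9 membrane reagent. Cells were enriched on streptavidin microbeads and then FACS-sorted, with low and high (top ~1%) gates set on anti-HA fluorescence for expression and streptavidin fluorescence for reagent binding. Each polyreactivity label reflects the gate a clone came from. Genes were amplified by colony PCR, sequenced by MiSeq 2 × 250 and filtered by CDR length.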
row,Sequence,polyreactivity (PSR sort gate)
1,QVQLVESGGGLVQAGGSLRLSCAASGFIFSRYAMGWYRQAPGKERELVAAISSGGRTNYADSVKGRFTISRDNAKNTVYLQMNSLKPEDTAVYFCAALLRGRSGQFEYDYWGQGTQVTVSS,low polyreactivity
2,QVQLVESGGGLVQAGGSLRLSCAASGFIFSRYGMGWYRQAPGKERELVAAISRTGGSTYYADSVKGRFTISRDNAKNTVYFQMNSLKPEDTAVYYCATAYSWRNADWFAYSYDYWGQGTQVTVSS,low polyreactivity
3,QVQLVESGGGLVQAGGSLRLSCAASGFIFSRYVMGWYRQAPGKEREFVAAISSSGGSTYYADSVKGRFTISRDNAKNTVYLQMNSLKPEDTAVYYCATRLGRYYRVGFDYWGQGNQVTVSS,high polyreactivity
4,QVQLVESGGGLVQAGGSLRLSCAASGFIFSSYAMGWYRQAPGKERELVAAISWSDSSTYYADSVKGRFTISRDNSKNTVYLQMTSLKPEDTAVYYCNVEVAESYDYWGQGTQVTVSS,low polyreactivity
5,QVQLVESGGGLVQAGGSLRLSCAASGFIFSSYAMGWYRQAPGKERELVAAITRNGGSTYYADSVKGRFTISRDNAKNTVYLQMNSLKPEDTAVYYCAAPRWRGVGRFDYWGQGTQVTVSS,high polyreactivity
6,QVQLVESGGGLVQAGGSLRLSCAASGFIFSSYAMGWYRQAPGKERELVAAITVRAGRTYYADSVKGRFTISRDNATNTVYFQMNSVKAEDTAVDYCAAAYRHPYGKYVYWGQGTQVTVSS,high polyreactivity
7,QVQLVESGGGLVQAGGSLRLSCAASGFIFSSYAMGWYRQAPGKERELVASIRRRGGSTYYADSVKGRFTISRDNAKNTVYLQMNSLKPEDTAVYYCAASRVSYGTRFDYWGQGTQVTVSS,high polyreactivity
8,QVQLVESGGGLVQAGGSLRLSCAASGFIFSSYTMGWYRQAPGKERELVAAITSRGGSTYYADSVKGRLTISRDNAKNTVYLQMNSLKPEDTAVYDWNARRIPYSPYGVHEGYYWGLGTQVTVSS,high polyreactivity
9,QVQLVESGGGLVQAGGSLRLSCAASGFIFSTNAMGWYRQAPGKERELVATIRSGGSTNYADSVKGRFTISRDNAKNTVYLQMNSLKPEDTAVYYCAAEPPGSTYEGGYWGQGTQVTVSS,low polyreactivity
10,QVQLVESGGGLVQAGGSLRLSCAASGFIFSWYAMGWYRQAPGKERELVARISSSGGNTYYADSVKGRFTISRDNAKNTVYLQMNSLKPEDTAVYYCAAGYRYRYDYWGQGTQVTVSS,high polyreactivity
11,QVQLVESGGGLVQAGGSLRLSCAASGFIFSYAMGWYRQAPGKERELVAAISKSGGRTYYADSVKGRFTISRDNAKNTVYLQMNSLKPEDTAVYYCAVRDLHLSIARYNYWGQGTQVTVSS,high polyreactivity
12,QVQLVESGGGLVQAGGSLRLSCAASGFIFSYNAMGWYREAPGKERELVAAISSRGGSTYYADSVKGRFTISRDNAKNTVYLQMNSLKPEDTADYYCAVASRRVYTAPYDYWGQGTQVTVSS,high polyreactivity
13,QVQLVESGGGLVQAGGSLRLSCAASGFIFSYNAMGWYRQAPGKERELVAAISSSGGTTYYADSVKGRFTISRDKAKNTVYLQMNSLKPEDTAVYYCNKTTHSRTFRYDYWAQGTQVTVSS,low polyreactivity
14,QVQLVESGGGLVQAGGSLRLSCAASGFIFSYNAMGWYRQAPGSERELVAAITRRTASTYYADSVKGRFTISRDNAKNTVYFQMNSLKPEDTAVYYCAADSSLKRPYYAGYYYWGQGTQVTVSS,high polyreactivity
15,QVQLVESGGGLVQAGGSLRLSCAASGFIFSYYAMGLYRQAPGKERELVAAIDYSGGSTNYADSVKGRFTISRDIAKYTVYLQMNSLKPEDTAVYYCNAEYTWHRGYDYWGQGTQVTVSS,low polyreactivity
16,QVQLVESGGGLVQAGGSLRLSCAASGFIFSYYAMGWYRQAPGKEREFVAAISRRGGSTYYADSVKGRFTISRDNAKNTVYLQMISLKPDDSAVYYCARRRTSTAVREHYYRDWYGYDYWGQGTQVTVSS,high polyreactivity

row,Sequence,polyreactivity (PSR sort gate)
1,QVQLVESGGGLVQAGGSLRLSCAASGFIFSYYAMGWYRQAPGKERELVAAITVRGGSTYYADSVKGRFTISRDNAKNTVYLQRNCLKPEDTAVYYCNTVHGLWRRYNYWGQGTQVTVSS,high polyreactivity
2,QVQLVESGGGLVQAGGSLRLSCAASGFIFSYYAMGWYRQAPGKERELVAAITWDGGSTYYADSVKGRFTISRDNAKNTVYLQMNSLKPEDTAVYYCNAYYYYRRPLEGGYGGQGTQVTVSS,low polyreactivity
3,QVQLVESGGGLVQAGGSLRLSCAASGFIFSYYAMGWYRQAPGKEWELVAAISQNVAGTYYADSVKGRFTISRDNAKNTVYLQMNSLKPEDTAVYYCNARPYSGKYYYWGQGTQVTVSS,high polyreactivity
4,QVQLVESGGGLVQAGGSLRLSCAASGFIFSYYAMGWYRQEPGKERELVAAITSNGGITYYADSVKGRFTISRDNAKNTVYLQMNSLKPEDTAVYYCNAYYTSTSYDYWGQGTQVTVSS,high polyreactivity
5,QVQLVESGGGLVQAGGSLRLSCAASGFIFTDNAMGWYRQAPGKEREFVAAITYSGGSTYYADSVKGRFTISRDNAKNTVYLQMNSLKPEDTAVYYCNKDVFPAPGGVTAYEYEYWGQGTQVTVSS,low polyreactivity
6,QVQLVESGGGLVQAGGSLRLSCAASGFIFTEYAMGWYRQAPGKERELVAAISRSDDGTHYADSVKGRFTISRDYAKNTVYLPMNSLKPEDTAVYDCAAYRDYQYDYWGQGTQVTVSS,low polyreactivity
7,QVQLVESGGGLVQAGGSLRLSCAASGFIFTGYAMGWYRQAPGTEREFVAAISYSGGSTYADSVKGRFTISRDNAKNTVYLQMNSLKPEDTAVYYCNARQGLWRYTAENDYWGQGTHVTVSS,low polyreactivity
8,QVQLVESGGGLVQAGGSLRLSCAASGFIFTIYAMGWYRQAPGKERELVAAISSGGSTTYADSVKGRFTISRDNAKNTVYLQMNSLKPEDTAVYYCNADYQYNRYSRVVGGHYVGWYGYWGQGTQVTVSS,low polyreactivity
9,QVQLVESGGGLVQAGGSLRLSCAASGFIFTIYAMGWYRQAPGKERELVAAITWNGGRTYYADSVKGRFTISRDNAKNTVYLQMNSLKAEDTAVYYCAARYGRAYDYWGQGTQVTVSS,high polyreactivity
10,QVQLVESGGGLVQAGGSLRLSCAASGFIFTKNAMGWYRQAPGKDRVLVAAITSSGGNTYYADSVKRRFTIARDNAKNTVYLQMNSLKPEDTAVYYCAASRFLRMYWGQGTQVTVSS,high polyreactivity
11,QVQLVESGGGLVQAGGSLRLSCAASGFIFTKYTMGWYRQAPGKERELVAAIRSDGVRTYYADSVKGRFTISRDNAKNTVYLQMNSLKPEDTAVYYCNRVSAVRIGAGDYWGQGTQVTVSS,high polyreactivity
12,QVQLVESGGGLVQAGGSLRLSCAASGFIFTKYTMGWYRQAPGKERELVAAITGRGTSTYADSVKGRFTISRDNAKNTVYLPMNSLIPEDTAVYYCAAVGWFAVFLFSDINGYYLGQGTQVTVSS,low polyreactivity
13,QVQLVESGGGLVQAGGSLRLSCAASGFIFTRNAMAWYRQAPGKEREMVAGISVRGGATYYADSVKGRFTLSRDNAKNSFYLQMNSLKPEDTAVYYCAARYWRGPRYDYWGQGTKVTVSS,high polyreactivity
14,QVQLVESGGGLVQAGGSLRLSCAASGFIFTRNRMGWYRHAPGKETELVAAISSGGRTYYADSVKGRFTISRDNAMNTVYLQMNSLIPEDTAVYYCNAGNRGVYRYDYWGQGTQVNVSS,high polyreactivity
15,QVQLVESGGGLVQAGGSLRLSCAASGFIFTRYAMGGYRHAPGKERELVAAISWSGGRTYYADSVKGRFTISRDNANNTVYLQMNSLKPEDTAVYYCAARWVRIRFDYWGQGTQVAVSS,high polyreactivity
16,QVQLVESGGGLVQAGGSLRLSCAASGFIFTRYAMGWYRQAPGKERELVAAISWSGGSTYYADSVKGRFTISRDNAKNTVYLQMNSLKPEDTAVYYCAADGSDSYDYWGQGTQVTVSS,low polyreactivity
